US20190225698A1 (published 2019)
Like-named read-outs stand apart in the source and are kept apart here.

Columns and labels:
[1] = molecular target: T1, murine CD27-FcHis fusion protein (murine, UniProt P41272 24-182); assay: SPR
T1 chain: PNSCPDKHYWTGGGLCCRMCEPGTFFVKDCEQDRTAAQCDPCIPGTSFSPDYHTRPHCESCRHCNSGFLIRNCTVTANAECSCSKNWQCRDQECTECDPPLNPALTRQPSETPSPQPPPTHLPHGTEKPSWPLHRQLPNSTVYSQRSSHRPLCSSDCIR

[2] = molecular target: T2, rhesus monkey CD27-Fc protein (rhesus monkey); assay: BLI
T2 chain: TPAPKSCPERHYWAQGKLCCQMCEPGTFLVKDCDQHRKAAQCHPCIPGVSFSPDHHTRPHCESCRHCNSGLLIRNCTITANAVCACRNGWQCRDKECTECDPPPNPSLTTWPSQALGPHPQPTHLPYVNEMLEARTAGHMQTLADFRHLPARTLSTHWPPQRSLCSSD

[3] = molecular target: T3, human CD27-HisFc fusion protein (human, UniProt P26842 20-192); assay: BLI
T3 chain: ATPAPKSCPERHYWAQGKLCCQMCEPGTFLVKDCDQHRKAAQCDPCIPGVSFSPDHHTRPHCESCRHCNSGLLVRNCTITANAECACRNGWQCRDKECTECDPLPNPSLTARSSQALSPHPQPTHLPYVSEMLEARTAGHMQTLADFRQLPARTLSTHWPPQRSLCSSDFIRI

human CD27-His = assay: SPR
[4] = molecular target: T4, murine CD27 expressed on the cell surface of transfected HEK293 cells (murine, UniProt P41272 24-250); assay: flow cytometry
T4 chain: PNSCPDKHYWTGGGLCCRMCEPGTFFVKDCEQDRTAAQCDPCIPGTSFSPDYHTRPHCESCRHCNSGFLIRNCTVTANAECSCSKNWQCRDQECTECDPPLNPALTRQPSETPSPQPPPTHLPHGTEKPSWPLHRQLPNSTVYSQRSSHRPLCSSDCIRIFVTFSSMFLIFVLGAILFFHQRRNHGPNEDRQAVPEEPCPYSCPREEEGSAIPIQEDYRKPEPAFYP

[5] = molecular target: T5, human CD27 expressed on the cell surface of transfected HEK293 cells (human, UniProt P26842 20-260); assay: flow cytometry
[6] = molecular target: T4, murine CD27 expressed on the cell …; assay: flow cytometry
[7] = molecular target: T5, human CD27 expressed on the cell …; assay: flow cytometry; remark: listed apart in the source

B1: anti-CD27 antibody mAb077 (IgG1 form) (antibody, V domains shown)
VH: EVQLVESGGGLVQPGGSLRLSCAASGFTFSGYGIHWVRQAPGKGLEWIGWINPNRGSTKYAQKFQGRVTISRDNSKNTLYLQLNSLRAEDTAVYYCARDPGYTWYFDVWGQGTLVTVSS
VL: DIQLTQSPSSLSASVGDRVTITCRASQDISSDLAWYQQKPGKAPKLLIYAASTLQSGVPSRFSGSGSGTDFTLTISSLQPEDFATYYCQQRDAWPPTFGQGTKVEIK
How did the Kd [1] turn out when B1 was run?
The Kd was 30.4 pM.

And the Kd [2]?
The Kd was 562 pM.

B2: mAb077 antibody Fab fragment with C-terminal histidine tag (Fab, V domains shown)
VH: EVQLVESGGGLVQPGGSLRLSCAASGFTFSGYGIHWVRQAPGKGLEWIGWINPNRGSTKYAQKFQGRVTISRDNSKNTLYLQLNSLRAEDTAVYYCARDPGYTWYFDVWGQGTLVTVSS
VL: DIQLTQSPSSLSASVGDRVTITCRASQDISSDLAWYQQKPGKAPKLLIYAASTLQSGVPSRFSGSGSGTDFTLTISSLQPEDFATYYCQQRDAWPPTFGQGTKVEIK
Which Kd [3] does the source give for B2 here?
The Kd was 4080 pM.

B3: mAb076-IgG (antibody, V domains shown)
VH: EVQLVESGGGLVQPGGSLRLSCAASGFTFSDYGIHWVRQAPGKGLEWIGWINPNRGSTNYAQKFQGRVTISRDNSKNTLYLQLNSLRAEDTAVYYCARDYGYTWYFDVWGQGTLVTVSS
VL: DIQLTQSPSSLSASVGDRVTITCRASQDISSVLAWYQQKPGKAPKLLIYAASSLQSGVPSRFSGSGSGTDFTLTISSLQPEDFATYYCQQRDAWPLTFGQGTKVEIK
B3 was tested. Which Kd (human CD27-His) did it give?
Its Kd is 332 pM.

B4: mAb076 antibody Fab fragment with C-terminal histidine tag (Fab, V domains shown)
VH: EVQLVESGGGLVQPGGSLRLSCAASGFTFSDYGIHWVRQAPGKGLEWIGWINPNRGSTNYAQKFQGRVTISRDNSKNTLYLQLNSLRAEDTAVYYCARDYGYTWYFDVWGQGTLVTVSS
VL: DIQLTQSPSSLSASVGDRVTITCRASQDISSVLAWYQQKPGKAPKLLIYAASSLQSGVPSRFSGSGSGTDFTLTISSLQPEDFATYYCQQRDAWPLTFGQGTKVEIK
How did the Kd [3] turn out when B4 was run?
The Kd was 1610 pM.

B5: mAb077-IgG (antibody, V domains shown)
VH: EVQLVESGGGLVQPGGSLRLSCAASGFTFSGYGIHWVRQAPGKGLEWIGWINPNRGSTKYAQKFQGRVTISRDNSKNTLYLQLNSLRAEDTAVYYCARDPGYTWYFDVWGQGTLVTVSS
VL: DIQLTQSPSSLSASVGDRVTITCRASQDISSDLAWYQQKPGKAPKLLIYAASTLQSGVPSRFSGSGSGTDFTLTISSLQPEDFATYYCQQRDAWPPTFGQGTKVEIK
Which Kd (human CD27-His) does the source give for B5 here?
The Kd was 137 pM.

B6: anti-CD27 antibody mAb076 (IgG1 form) (antibody, V domains shown)
VH: EVQLVESGGGLVQPGGSLRLSCAASGFTFSDYGIHWVRQAPGKGLEWIGWINPNRGSTNYAQKFQGRVTISRDNSKNTLYLQLNSLRAEDTAVYYCARDYGYTWYFDVWGQGTLVTVSS
VL: DIQLTQSPSSLSASVGDRVTITCRASQDISSVLAWYQQKPGKAPKLLIYAASSLQSGVPSRFSGSGSGTDFTLTISSLQPEDFATYYCQQRDAWPLTFGQGTKVEIK
For B6, which Kd [1] is on record?
Its Kd is 75.4 pM.

And the Kd [2]?
The Kd was less than 1 pM.

And the Kd [4]?
Its Kd is 300 pM.

And the Kd [5]?
The Kd was 160 pM.

B7: 1F5-IgG (antibody, V domains shown)
VH: QVQLVESGGGVVQPGRSLRLSCAASGFTFSSYDMHWVRQAPGKGLEWVAVIWYDGSNKYYADSVKGRFTISRDNSKNTLYLQMNSLRAEDTAVYYCARGSGNWGFFDYWGQGTLVTVSS
VL: DIQMTQSPSSLSASVGDRVTITCRASQGISRWLAWYQQKPEKAPKSLIYAASSLQSGVPSRFSGSGSGTDFTLTISSLQPEDFATYYCQQYNTYPRTFGQGTKVEIK
B7 was tested. Which Kd (human CD27-His) did it give?
Its Kd is 1390 pM.

B8: reference antibody 1F5 (antibody, V domains shown)
VH: QVQLVESGGGVVQPGRSLRLSCAASGFTFSSYDMHWVRQAPGKGLEWVAVIWYDGSNKYYADSVKGRFTISRDNSKNTLYLQMNSLRAEDTAVYYCARGSGNWGFFDYWGQGTLVTVSS
VL: DIQMTQSPSSLSASVGDRVTITCRASQGISRWLAWYQQKPEKAPKSLIYAASSLQSGVPSRFSGSGSGTDFTLTISSLQPEDFATYYCQQYNTYPRTFGQGTKVEIK
What does the source list for B8?
Kd [2]: 2130 pM; Kd [6]: 31000 pM; Kd [7]: 560 pM
